In paper PMC6954437 (Nucleic Acids Research, 2019):
Numbering of substitutions follows the chain as printed. Numbers in names are those of the source.

Columns and labels:
SEC-MALS = target: the molecule itself; experiment: SEC-MALS
[…] = target: the molecule itself; experiment: […]
[1] = target: G5-TPR (Gemin5 TPR-like dimerization domain) (Homo sapiens, UniProt Q8TEQ6 807-1097); experiment: EMSA
[2] = target: T1, Gemin5 cleavage fragment p85, wild type, with C-terminal TAP tag (human, UniProt Q8TEQ6 845-1508); experiment: co-IP
T1 sequence: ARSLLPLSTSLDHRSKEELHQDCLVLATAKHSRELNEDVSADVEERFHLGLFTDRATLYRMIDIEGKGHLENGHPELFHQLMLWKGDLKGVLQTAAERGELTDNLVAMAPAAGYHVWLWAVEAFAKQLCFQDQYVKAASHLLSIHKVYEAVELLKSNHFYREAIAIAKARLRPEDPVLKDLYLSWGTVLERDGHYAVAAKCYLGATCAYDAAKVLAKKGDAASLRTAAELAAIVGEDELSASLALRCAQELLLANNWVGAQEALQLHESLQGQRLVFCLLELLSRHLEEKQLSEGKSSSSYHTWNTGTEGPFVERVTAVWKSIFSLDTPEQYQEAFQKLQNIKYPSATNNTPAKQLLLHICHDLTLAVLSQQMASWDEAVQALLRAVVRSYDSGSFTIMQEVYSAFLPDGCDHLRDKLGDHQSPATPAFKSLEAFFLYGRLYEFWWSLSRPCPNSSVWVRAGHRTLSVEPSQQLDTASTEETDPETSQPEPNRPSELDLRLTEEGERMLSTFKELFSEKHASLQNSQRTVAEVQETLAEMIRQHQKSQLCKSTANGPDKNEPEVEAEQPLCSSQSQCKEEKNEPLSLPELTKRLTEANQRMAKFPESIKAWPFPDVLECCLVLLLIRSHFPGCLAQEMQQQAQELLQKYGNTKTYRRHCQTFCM

B1: Gemin5 TPR-like domain (residues 807-1097), wild type (domain or fragment)
chain: TPVSSGFEKSKVTINNKVILLKKEPPKEKPETLIKKRKARSLLPLSTSLDHRSKEELHQDCLVLATAKHSRELNEDVSADVEERFHLGLFTDRATLYRMIDIEGKGHLENGHPELFHQLMLWKGDLKGVLQTAAERGELTDNLVAMAPAAGYHVWLWAVEAFAKQLCFQDQYVKAASHLLSIHKVYEAVELLKSNHFYREAIAIAKARLRPEDPVLKDLYLSWGTVLERDGHYAVAAKCYLGATCAYDAAKVLAKKGDAASLRTAAELAAIVGEDELSASLALRCAQELLL
- stoichiometry N (SEC-MALS): 2

B2: Gemin5 TPR-like domain (residues 807-1097) A951E (domain or fragment)
chain: B1 chain with A145E
- stoichiometry N ([…]): 2

B3: ssDNA H1-24-s (29 nt) (ssDNA)
DNA: AATTCCCCAAATTCCAGTGTCTGGGTAAG
- binding result [1]: no binding

B4: dsDNA H1-24-s/H1-24-as (dsDNA)
DNA 1: AATTCCCCAAATTCCAGTGTCTGGGTAAG
DNA 2: TCGACTTACCCAGACACTGGAATTTGGGG
- binding result [1]: no binding

B5: Gemin5, full-length endogenous protein (natural protein)
chain: MGQEPRTLPPSPNWYCARCSDAVPGGLFGFAARTSVFLVRVGPGAGESPGTPPFRVIGELVGHTERVSGFTFSHHPGQYNLCATSSDDGTVKIWDVETKTVVTEHALHQHTISTLHWSPRVKDLIVSGDEKGVVFCYWFNRNDSQHLFIEPRTIFCLTCSPHHEDLVAIGYKDGIVVIIDISKKGEVIHRLRGHDDEIHSIAWCPLPGEDCLSINQEETSEEAEITNGNAVAQAPVTKGCYLATGSKDQTIRIWSCSRGRGVMILKLPFLKRRGGGIDPTVKERLWLTLHWPSNQPTQLVSSCFGGELLQWDLTQSWRRKYTLFSASSEGQNHSRIVFNLCPLQTEDDKQLLLSTSMDRDVKCWDIATLECSWTLPSLGGFAYSLAFSSVDIGSLAIGVGDGMIRVWNTLSIKNNYDVKNFWQGVKSKVTALCWHPTKEGCLAFGTDDGKVGLYDTYSNKPPQISSTYHKKTVYTLAWGPPVPPMSLGGEGDRPSLALYSCGGEGIVLQHNPWKLSGEAFDINKLIRDTNSIKYKLPVHTEISWKADGKIMALGNEDGSIEIFQIPNLKLICTIQQHHKLVNTISWHHEHGSQPELSYLMASGSNNAVIYVHNLKTVIESSPESPVTITEPYRTLSGHTAKITSVAWSPHHDGRLVSASYDGTAQVWDALREEPLCNFRGHRGRLLCVAWSPLDPDCIYSGADDFCVHKWLTSMQDHSRPPQGKKSIELEKKRLSQPKAKPKKKKKPTLRTPVKLESIDGNEEESMKENSGPVENGVSDQEGEEQAREPELPCGLAPAVSREPVICTPVSSGFEKSKVTINNKVILLKKEPPKEKPETLIKKRKARSLLPLSTSLDHRSKEELHQDCLVLATAKHSRELNEDVSADVEERFHLGLFTDRATLYRMIDIEGKGHLENGHPELFHQLMLWKGDLKGVLQTAAERGELTDNLVAMAPAAGYHVWLWAVEAFAKQLCFQDQYVKAASHLLSIHKVYEAVELLKSNHFYREAIAIAKARLRPEDPVLKDLYLSWGTVLERDGHYAVAAKCYLGATCAYDAAKVLAKKGDAASLRTAAELAAIVGEDELSASLALRCAQELLLANNWVGAQEALQLHESLQGQRLVFCLLELLSRHLEEKQLSEGKSSSSYHTWNTGTEGPFVERVTAVWKSIFSLDTPEQYQEAFQKLQNIKYPSATNNTPAKQLLLHICHDLTLAVLSQQMASWDEAVQALLRAVVRSYDSGSFTIMQEVYSAFLPDGCDHLRDKLGDHQSPATPAFKSLEAFFLYGRLYEFWWSLSRPCPNSSVWVRAGHRTLSVEPSQQLDTASTEETDPETSQPEPNRPSELDLRLTEEGERMLSTFKELFSEKHASLQNSQRTVAEVQETLAEMIRQHQKSQLCKSTANGPDKNEPEVEAEQPLCSSQSQCKEEKNEPLSLPELTKRLTEANQRMAKFPESIKAWPFPDVLECCLVLLLIRSHFPGCLAQEMQQQAQELLQKYGNTKTYRRHCQTFCM
- fold recruitment against p85-A951E [2]: 10 fold
